This experiment addresses DCR-1•DRH-1 complex (DCR-1•(OSF)DRH-1) (C. elegans) (UniProt P34529). As to the kind of experiment: pull-down.

Substance “RDE-4 truncation R1R2 (dsRBM1 and dsRBM2, ends with D243) (from UniProt G5EBF5 1-243) (domain or fragment)” displayed a percent recovery normalized to WT RDE-4 of 8%.

Source of the values: publication PMC13618070.
